This passage reports response results from PMC12386978 (2025).

To fix the notation:
B1: NLuc-mCRY1 (wild-type) [mouse (printed as mCRY1)] / CLuc-BMAL1 [not stated] (parent complex)
chain 1: MGVNAVHWFRKGLRLHDNPALKECIQGADTIRCVYILDPWFAGSSNVGINRWRFLLQCLEDLDANLRKLNSRLFVIRGQPADVFPRLFKEWNITKLSIEYDSEPFGKERDAAIKKLATEAGVEVIVRISHTLYDLDKIIELNGGQPPLTYKRFQTLVSKMEPLEMPADTITSDVIGKCMTPLSDDHDEKYGVPSLEELGFDTDGLSSAVWPGGETEALTRLERHLERKAWVANFERPRMNANSLLASPTGLSPYLRFGCLSCRLFYFKLTDLYKKVKKNSSPPLSLYGQLLWREFFYTAATNNPRFDKMEGNPICVQIPWDKNPEALAKWAEGRTGFPWIDAIMTQLRQEGWIHHLARHAVACFLTRGDLWISWEEGMKVFEELLLDADWSINAGSWMWLSCSSFFQQFFHCYCPVGFGRRTDPNGDYIRRYLPVLRGFPAKYIYDPWNAPEGIQKVAKCLIGVNYPKPMVNHAEASRLNIERMKQIYQQLSRYRGLGLLASVPSNSNGNGGLMGYAPGENVPSCSSSGNGGLMGYAPGENVPSCSGGNCSQGSGILHYAHGDSQQTHSLKQGRSSAGTGLSSGKRPSQEEDAQSVGPKVQRQSSN
chain 2: not shown

The variants in this experiment derive from B1. As to the kind of experiment: split-luciferase complementation assay; HEK293T cells, n = 3; read off a plot.
With chain 1 K151Q, the response is ~3200.

chain 1 K151R: the response was ~3900.
